Test results: PMC4385930

What was measured:
Assay in all cases: ITC
[1] = target: Bax BH3 BH3 (Homo sapiens), Q07812
[2] = target: Bid BH3 BH3 (Homo sapiens), P55957
[3] = target: Bak BH3 BH3 (Homo sapiens), Q16611

B1: F1L ΔN38ΔC36, P24356 (protein)
chain: YPLPENMVYRFDKSTNILDYLSTERDHVMMAVRYYMSKQRLDDLYRQLPTKTRSYIDIINIYCDKVSNDYNRDMNIMYDMASTKSFTVYDINNEVNTILMDNKGLGVRLATISFITELGRRCMNPVETIKMFTLLSHTICDDYFVDYITDIS
With B1 the Kd [1] was 0.92 µM, the Kd [2] was 3.22 µM and the Kd [3] was 2.64 µM.
